Residue numbers refer to the chain shown, from its start. Numbers in names are those of the source. Values belong to the molecule of their own block, whether it stands above or below them.
T1: human IL20R1/IL20R2 receptor complex (human, UniProt Q9UHF4 30-553; Q6UXL0 30-311)
T1 sequence (looked up) 1: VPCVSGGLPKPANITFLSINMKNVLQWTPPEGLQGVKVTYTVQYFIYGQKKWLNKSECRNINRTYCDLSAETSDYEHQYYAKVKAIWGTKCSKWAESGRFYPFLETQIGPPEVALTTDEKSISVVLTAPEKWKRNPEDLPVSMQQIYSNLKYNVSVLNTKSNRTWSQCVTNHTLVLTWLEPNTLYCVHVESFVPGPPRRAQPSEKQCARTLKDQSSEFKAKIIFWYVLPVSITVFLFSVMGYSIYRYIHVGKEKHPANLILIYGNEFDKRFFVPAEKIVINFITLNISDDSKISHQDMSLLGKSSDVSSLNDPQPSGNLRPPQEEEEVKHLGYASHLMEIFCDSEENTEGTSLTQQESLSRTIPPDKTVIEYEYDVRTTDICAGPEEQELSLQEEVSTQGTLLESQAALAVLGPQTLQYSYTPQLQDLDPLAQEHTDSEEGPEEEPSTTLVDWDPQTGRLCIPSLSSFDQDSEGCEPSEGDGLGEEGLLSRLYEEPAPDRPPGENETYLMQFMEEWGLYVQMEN
T1 sequence (looked up) 2: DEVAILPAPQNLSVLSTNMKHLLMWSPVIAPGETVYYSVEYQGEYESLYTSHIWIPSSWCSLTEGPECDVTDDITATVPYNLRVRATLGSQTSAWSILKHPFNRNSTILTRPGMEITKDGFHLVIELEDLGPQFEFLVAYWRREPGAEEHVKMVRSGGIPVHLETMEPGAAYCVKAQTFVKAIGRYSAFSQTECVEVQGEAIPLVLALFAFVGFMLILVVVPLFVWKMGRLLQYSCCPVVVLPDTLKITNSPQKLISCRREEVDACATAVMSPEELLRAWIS

T2: human IL22R1/IL20R2 receptor complex (human, UniProt Q8N6P7 16-574; Q6UXL0 30-311)
T2 sequence (looked up) 1: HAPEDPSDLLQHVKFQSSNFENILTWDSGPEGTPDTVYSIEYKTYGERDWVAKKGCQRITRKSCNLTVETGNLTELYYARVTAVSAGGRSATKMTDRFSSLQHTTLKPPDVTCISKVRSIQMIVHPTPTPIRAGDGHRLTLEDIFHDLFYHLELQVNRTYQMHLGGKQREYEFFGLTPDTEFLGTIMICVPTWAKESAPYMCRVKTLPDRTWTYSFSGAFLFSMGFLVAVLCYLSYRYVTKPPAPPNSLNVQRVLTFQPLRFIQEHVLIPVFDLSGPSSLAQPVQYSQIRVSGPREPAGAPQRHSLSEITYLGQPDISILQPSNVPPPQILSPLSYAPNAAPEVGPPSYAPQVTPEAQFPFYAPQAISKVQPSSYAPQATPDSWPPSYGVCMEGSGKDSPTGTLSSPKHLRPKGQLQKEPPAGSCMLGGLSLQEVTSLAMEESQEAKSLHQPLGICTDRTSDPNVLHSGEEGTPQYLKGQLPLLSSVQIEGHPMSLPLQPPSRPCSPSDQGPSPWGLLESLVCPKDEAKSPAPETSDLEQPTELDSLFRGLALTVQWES
T2 sequence (looked up) 2: T1 sequence (looked up) 2

B1: F18 (LC: F56Type1; HC: F18) (antibody, human IgG4, V domains shown)
VH: QVQVVQSGAEVKKPGASVRVSCTASGYTFTDYAIHWVRQAPGQRLEWMGWINAGYGNTKYSQKFQGRVTITRDTSASTVYMELSSLRSEDTAVYYCAREGGALSWFGESQGFDYWGQGTLVT
VL: AIQLTQSPSSLSASVGDRVTITCRASQGISSALAWYQQKPGKAPKLLIYDASSLESGVPSRFSGSGSGTDFTLTISSLQPEDFATYYCQQFNSYPLTFGGGTKVEIKR
B2: human anti-IL20 antibody C11 (antibody, human IgG1, V domains shown)
VH: QVQLVQSGAEVKRPGASVKVSCKASGYTFTNDIIHWVRQAPGQRLEWMGWINAGYGNTQYSQNFQDRVSITRDTSASTAYMELISLRSEDTAVYYCAREPLWFGESSPHDYYGMDVWGQGTTVTVSS
VL: B1 VL
B3: F56 (LC: F56Type1; HC: F56) (antibody, human IgG4, V domains shown)
VH: B1 VH with V4L, T30P, D31N, V79A, A102V, S104L
VL: B1 VL
B4: 15D2 with an S241P mutation (antibody, V domains shown)
VH: B2 VH
VL: B1 VL
notes: IgG4 hinge mutation S241P (Kabat); Expressed in HEK293 or CHO cells (host named under assay); also called 15D2-S241P; not shown: human IgG4 heavy chain constant region
B5: human anti-IL20 antibody 2F6 (antibody, human IgG4, V domains shown)
VH: QITLKESGPTLVKPTQTLTLTCTFSGFSFSTNGVGVGWIRQPPGKALEWLALIYWNDDKRYSPSLKSRLTITKDTSKNQVVLTMTNMDPLDTATYYCAHSPFIMVRGVIITFFDFWGQGTLVT
VL: VIWMTQSPSLLSASTGDRVTISCRMSQGISSYLAWYQQKPGKAPELLIYAASTLQSGVPSRFSGSGSGTDFTLTISCLQSEDFATYYCQQYYSFPLTFGGGTKVEIKR
B6: recombinant human interleukin-20 (ligand)
chain: LKTLNLGSCVIATNLQEIRNGFSEIRGSVQAKDGNIDIRILRRTESLQDTKPANRCCLLRHLLRLYLDRVFKNYQTPDHYTLRKISSLANSFLTIKKDLRLCHAHMTCHCGEEAMKKYSQILSHFEKLEPQAAVVKALGELDILLQWMEETE
B7: human IL19 (ligand)
chain: LRRCLISTDMHHIEESFQEIKRAIQAKDTFPNVTILSTLETLQIIKPLDVCCVTKNLLAFYVDRVFKDHQEPNPKILRKISSIANSFLYMQKTLRQCQEQRQCHCRQEATNATRVIHDNYDQLEVHAAAIKSLGELDVFLAWINKNHEVMFSA
notes: Bought from R&D systems; whole entry named; also called hIL19

Experiments:
[1] = biological target: cynomolgus IL22R1/IL20R2 receptor complex (cynomolgus monkey); assay: cell-based or functional assay
[2] = biological target: cynomolgus IL20R1/IL20R2 receptor complex (cynomolgus monkey); assay: cell-based or functional assay
[3] = biological target: B6; assay: cell-based or functional assay
[4] = biological target: B6; assay: SPR (Biacore 3000/T100), antibody amine-coupled on CM5, recombinant hIL20 injected 3.125-100 nM, 1:1 Langmuir, 25 C; antibody from CHO
Protocol: (§1) Affinity studies were performed using a direct binding procedure, with the monoclonal antibody covalently coupled via free amine groups to the carboxymethylated dextrane membrane (CM5) on the sensor chip surface. […] The kinetic parameters for the interaction could be calculated using a 1:1 interaction Langmuir fitting model.
(§2) The purified monoclonal antibodies were immobilized in individual flow cells on a CM5 type sensor chip. Immobilizations were performed using a standard amine coupling procedure, aiming for an immobilization level of 1000 Resonance Units (RU). The antibodies were diluted to 5 μg/ml in 10 mM NaAc pH 5.0. […] Association (injection) was 3 min., followed by a 30 min. dissociation (wash) period. Flow rate was 30 μl/min. Experiments were performed at 25° C. Regeneration of the surface following each cycle, was accomplished by injection of 30 sec. pulse of 10 mM Glycin-HCl pH 1.8, at a 30 ul/min flow rate. Detection in all flow cells simultaneously. Flow cell No. 1 contained no immobilized antibody, and was used for subtraction of background and bulk. […] Data was inspected for mass-transport limitations prior to calculation of the kinetic parameters. Experiments were performed on Biacore 3000 and T100 instruments. Data was evaluated using Biaeval 4.1 and Biacore T100 evaluation software.

[5] = biological target: B6; assay: SPR (Biacore 3000/T100), antibody amine-coupled on CM5, recombinant hIL20 injected 3.125-100 nM, 1:1 Langmuir, 25 C; antibody from HEK293
Protocol: as §1, §2

[6] = biological target: T1, human IL20R1/IL20R2 receptor complex; assay: cell-based or functional assay
[7] = biological target: T2, human IL22R1/IL20R2 receptor complex; assay: cell-based or functional assay
[8] = biological target: T1, human IL20R1/IL20R2 receptor complex; assay: inferred from BaF-3(hIL20R) proliferation; IL19 reverted the 15D2 block

fold induction of luciferase reporter in transfected BHK cells, 1 nM cynoIL20 [1]: 3 to 4 fold
fold induction of luciferase reporter in transfected BHK cells, 1 nM cynoIL20 [2]: 2 fold
Molecule: cynomolgus IL20 (from UniProt Q9NYY1 25-176) (ligand)

Molecule: B1
IC50, inhibition of IL20 induced proliferation of BaF-3(hIL20R) at 1e-9M hIL20 (assay 5) [3]: 50 nM

Molecule: B2
IC50, inhibition of IL20 induced proliferation of BaF-3(hIL20R) at 1e-9M hIL20 (assay 1) [3]: 260 nM
IC50, inhibition of IL20 induced proliferation of BaF-3(hIL20R) at 1e-9M hIL20 (assay 2) [3]: 2000 nM
IC50, inhibition of IL20 induced proliferation of BaF-3(hIL20R) at 1e-9M hIL20 (assay 3) [3]: 370 nM
IC50, inhibition of IL20 induced proliferation of BaF-3(hIL20R) at 1e-9M hIL20 (assay 7) [3]: 186 nM

Molecule: B3
IC50, inhibition of IL20 induced proliferation of BaF-3(hIL20R) at 1e-9M hIL20 (assay 4) [3]: 40 nM
IC50, inhibition of IL20 induced proliferation of BaF-3(hIL20R) at 1e-9M hIL20 (assay 5) [3]: 730 nM

Molecule: B4
Kd [4]: 0.031 nM
koff [4]: 7.1e-05 s⁻¹
kon [4]: 2.3e+06 M⁻¹ s⁻¹
Kd [5]: 0.036 nM
koff [5]: 6.8e-05 s⁻¹
kon [5]: 1.7e+06 M⁻¹ s⁻¹

Molecule: B5
IC50, inhibition of IL20 induced proliferation of BaF-3(hIL20R) at 1e-9M hIL20 (assay 1) [3]: 15400 nM
IC50, inhibition of IL20 induced proliferation of BaF-3(hIL20R) at 1e-9M hIL20 (assay 2) [3]: 13900 nM
IC50, inhibition of IL20 induced proliferation of BaF-3(hIL20R) at 1e-9M hIL20 (assay 3) [3]: 1670 nM
IC50, inhibition of IL20 induced proliferation of BaF-3(hIL20R) at 1e-9M hIL20 (assay 4) [3]: 360 nM
IC50, inhibition of IL20 induced proliferation of BaF-3(hIL20R) at 1e-9M hIL20 (assay 5) [3]: 1800 nM
IC50, inhibition of IL20 induced proliferation of BaF-3(hIL20R) at 1e-9M hIL20 (assay 6) [3]: 320 nM
IC50, inhibition of IL20 induced proliferation of BaF-3(hIL20R) at 1e-9M hIL20 (assay 7) [3]: 15400 nM

Molecule: B6
fold induction of luciferase reporter in transfected BHK cells, 1 nM hIL20 [6]: ~3 fold
fold induction of luciferase reporter in transfected BHK cells, 1 nM hIL20 [7]: ~3 fold

Molecule: B7
binding result [8]: binds
